According to the supplement of paper PMC9112550, “Optimization of the antimicrobial peptide Bac7 by deep mutational scanning” (BMC Biology, 2022):

Tested on: Escherichia coli TOP10
Experiment: shrunken log2 fold change of peptide-encoding DNA abundance (4.5 h post-induction vs induction); higher = less antimicrobial activity (less host growth inhibition)
Details: time post-induction: 4.5 h; library: site-saturation at positions 5, 18, 19, 20
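Note: peptides expressed intracellularly from a pBAD plasmid library in pooled LB shake-flask culture, induced with 0.3% L-arabinose, DNA abundance read by NGS, three biological replicates, DESeq2 with apeglm shrinkage.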

| Sequence | shrunken log2 fold change |
| --- | --- |
| RRIRQRPPRLPRPRPRPRRSPRP | -0.0497 |
| RRIRDRPPRLPRPRPRPCIVPRP | -0.0549 |
| RRIRTRPPRLPRPRPRPSNYPRP | -1.22 |
| RRIRTRPPRLPRPRPRPHFCPRP | 0.0392 |
| RRIRWRPPRLPRPRPRPCNNPRP | 0.00194 |
| RRIRMRPPRLPRPRPRPNNMPRP | -0.309 |
| RRIRSRPPRLPRPRPRPRGFPRP | 0.82 |
| RRIRVRPPRLPRPRPRPWMQPRP | -0.106 |
| RRIRVRPPRLPRPRPRPTGYPRP | -0.239 |
| RRIRERPPRLPRPRPRPNWPPRP | 0.202 |
| RRIRLRPPRLPRPRPRPICIPRP | -0.579 |
| RRIRWRPPRLPRPRPRPAKYPRP | -0.183 |
| RRIRCRPPRLPRPRPRPHQIPRP | -0.389 |
| RRIRGRPPRLPRPRPRPKNPPRP | 0.489 |
| RRIRQRPPRLPRPRPRPPCRPRP | -0.0419 |
| RRIRQRPPRLPRPRPRPWCLPRP | -0.275 |
| RRIRRRPPRLPRPRPRPAYEPRP | 0.138 |
| RRIRTRPPRLPRPRPRPCRMPRP | -0.261 |
| RRIRDRPPRLPRPRPRPPNYPRP | -0.147 |
| RRIRKRPPRLPRPRPRPHFIPRP | 0.136 |
| RRIRDRPPRLPRPRPRPMPFPRP | 0.00571 |
| RRIRERPPRLPRPRPRPKQVPRP | -0.131 |
| RRIRLRPPRLPRPRPRPHDNPRP | -0.526 |
| RRIRLRPPRLPRPRPRPLWYPRP | -0.191 |
| RRIRTRPPRLPRPRPRPRMHPRP | 0.0254 |

| Sequence | shrunken log2 fold change |
| --- | --- |
| RRIRLRPPRLPRPRPRPDQVPRP | 0.0207 |
| RRIRGRPPRLPRPRPRPMWTPRP | 0.311 |
| RRIRPRPPRLPRPRPRPDSAPRP | -0.18 |
| RRIRRRPPRLPRPRPRPEQYPRP | 0.17 |
| RRIRSRPPRLPRPRPRPELWPRP | 0.743 |
| RRIRGRPPRLPRPRPRPCFIPRP | 0.0559 |
| RRIRWRPPRLPRPRPRPVNVPRP | -0.328 |
| RRIRQRPPRLPRPRPRPEWYPRP | 0.0539 |
| RRIRQRPPRLPRPRPRPDSHPRP | -0.065 |
| RRIRSRPPRLPRPRPRPNEFPRP | 0.00763 |
| RRIRPRPPRLPRPRPRPCIMPRP | -1.1 |
| RRIRFRPPRLPRPRPRPRMAPRP | 0.375 |
| RRIRDRPPRLPRPRPRPLFPPRP | -0.116 |
| RRIRIRPPRLPRPRPRPWNIPRP | -0.0297 |
| RRIRLRPPRLPRPRPRPNDHPRP | -0.43 |
| RRIRRRPPRLPRPRPRPWRLPRP | 0.289 |
| RRIRGRPPRLPRPRPRPDYAPRP | -0.0775 |
| RRIRTRPPRLPRPRPRPIPMPRP | -0.38 |
| RRIRRRPPRLPRPRPRPIRKPRP | -0.0416 |
| RRIRFRPPRLPRPRPRPSFPPRP | -0.38 |
| RRIRFRPPRLPRPRPRPSLYPRP | -0.594 |
| RRIRYRPPRLPRPRPRPPHYPRP | -0.686 |
| RRIRGRPPRLPRPRPRPRRRPRP | 1.02 |
| RRIRIRPPRLPRPRPRPTRYPRP | -0.328 |
| RRIRFRPPRLPRPRPRPGNLPRP | -0.13 |

| Sequence | shrunken log2 fold change |
| --- | --- |
| RRIRLRPPRLPRPRPRPWQFPRP | -0.196 |
| RRIRQRPPRLPRPRPRPDTDPRP | -0.00927 |
| RRIRMRPPRLPRPRPRPGCIPRP | 0.0871 |
| RRIRYRPPRLPRPRPRPDIIPRP | -0.609 |
| RRIRWRPPRLPRPRPRPAKDPRP | 0.0218 |
| RRIRTRPPRLPRPRPRPTFCPRP | 0.147 |
| RRIRFRPPRLPRPRPRPVWIPRP | -0.0471 |
| RRIRVRPPRLPRPRPRPTNHPRP | -0.384 |
| RRIRCRPPRLPRPRPRPCMFPRP | -0.625 |
| RRIRARPPRLPRPRPRPEYCPRP | 0.409 |
| RRIRTRPPRLPRPRPRPNGQPRP | 0.149 |
| RRIRDRPPRLPRPRPRPWVHPRP | -0.0818 |
| RRIRVRPPRLPRPRPRPKQQPRP | 0.0386 |
| RRIRIRPPRLPRPRPRPMDCPRP | -0.115 |
| RRIRMRPPRLPRPRPRPGGKPRP | 0.583 |
| RRIRNRPPRLPRPRPRPGASPRP | 0.412 |
| RRIRYRPPRLPRPRPRPDFEPRP | -0.0141 |
| RRIRCRPPRLPRPRPRPHCLPRP | -1.4 |
| RRIRMRPPRLPRPRPRPPQVPRP | 0.995 |
| RRIRVRPPRLPRPRPRPSVYPRP | -0.25 |
| RRIRYRPPRLPRPRPRPSCDPRP | -0.74 |
| RRIRWRPPRLPRPRPRPAQLPRP | 1.63 |
| RRIRFRPPRLPRPRPRPDLCPRP | -0.0489 |
| RRIRCRPPRLPRPRPRPCNAPRP | -0.448 |
| RRIRCRPPRLPRPRPRPLDWPRP | 0.285 |

| Sequence | shrunken log2 fold change |
| --- | --- |
| RRIRIRPPRLPRPRPRPGWVPRP | 0.28 |
| RRIRHRPPRLPRPRPRPDPPPRP | 0.232 |
| RRIRYRPPRLPRPRPRPWFRPRP | -0.567 |
| RRIRRRPPRLPRPRPRPQLEPRP | 0.059 |
| RRIRKRPPRLPRPRPRPCKHPRP | -0.11 |
| RRIRARPPRLPRPRPRPQSKPRP | 0.0474 |
| RRIRSRPPRLPRPRPRPTFYPRP | -0.231 |
| RRIRWRPPRLPRPRPRPDSHPRP | -0.126 |
| RRIRKRPPRLPRPRPRPLDRPRP | -0.0461 |
| RRIRQRPPRLPRPRPRPQFHPRP | -0.591 |
| RRIRWRPPRLPRPRPRPPVDPRP | 0.494 |
| RRIRKRPPRLPRPRPRPTEAPRP | 0.77 |
| RRIRYRPPRLPRPRPRPYFLPRP | -1.23 |
| RRIRVRPPRLPRPRPRPGGGPRP | 0.695 |
| RRIRTRPPRLPRPRPRPEKIPRP | 0.0436 |
| RRIRSRPPRLPRPRPRPFIDPRP | -0.0941 |
| RRIRTRPPRLPRPRPRPDYIPRP | -0.323 |
| RRIRHRPPRLPRPRPRPYWVPRP | -0.26 |
| RRIRCRPPRLPRPRPRPAALPRP | 0.219 |
| RRIRSRPPRLPRPRPRPPVIPRP | -0.0672 |
| RRIRKRPPRLPRPRPRPMATPRP | 0.329 |
| RRIRFRPPRLPRPRPRPEYGPRP | -0.621 |
| RRIRKRPPRLPRPRPRPWKIPRP | -0.00192 |
| RRIRCRPPRLPRPRPRPHDVPRP | -0.314 |
| RRIRQRPPRLPRPRPRPRQKPRP | 0.257 |

| Sequence | shrunken log2 fold change |
| --- | --- |
| RRIRYRPPRLPRPRPRPYRFPRP | -0.168 |
| RRIRFRPPRLPRPRPRPDGDPRP | 0.0613 |
| RRIRNRPPRLPRPRPRPSMCPRP | -0.0503 |
| RRIRDRPPRLPRPRPRPPDSPRP | 0.0832 |
| RRIRKRPPRLPRPRPRPKRFPRP | -0.0257 |
| RRIRKRPPRLPRPRPRPVGFPRP | 0.485 |
| RRIRTRPPRLPRPRPRPHDDPRP | -0.0991 |
| RRIRTRPPRLPRPRPRPEMKPRP | 0.258 |
| RRIRVRPPRLPRPRPRPFNRPRP | -0.0378 |
| RRIRHRPPRLPRPRPRPRYYPRP | -0.332 |
| RRIRKRPPRLPRPRPRPKEMPRP | 0.682 |
| RRIRDRPPRLPRPRPRPRYPPRP | -0.0457 |
| RRIRERPPRLPRPRPRPANVPRP | -0.0342 |
| RRIRLRPPRLPRPRPRPGTVPRP | -0.0516 |
| RRIRGRPPRLPRPRPRPGCEPRP | 2.03 |
| RRIRVRPPRLPRPRPRPDDFPRP | 0.0492 |
| RRIRDRPPRLPRPRPRPVAIPRP | 0.711 |
| RRIRNRPPRLPRPRPRPVHDPRP | 0.068 |
| RRIRQRPPRLPRPRPRPITLPRP | -0.418 |
| RRIRMRPPRLPRPRPRPDIPPRP | -0.0804 |
| RRIRNRPPRLPRPRPRPVCYPRP | -0.21 |
| RRIRQRPPRLPRPRPRPKFGPRP | 0.102 |
| RRIRNRPPRLPRPRPRPIRQPRP | 0.0261 |
| RRIRMRPPRLPRPRPRPHQQPRP | 0.107 |
| RRIRKRPPRLPRPRPRPEWCPRP | 0.278 |
